We go through two molecules from article doi:10.1101/695700 (bioRxiv, 2019).

The chains are these.
B1: recombinant HC1 (rHC1), wild type; heavy chain 1 of inter-α-inhibitor (natural protein, human, UniProt P19827 35-672, looked up)
chain: SKSSEKRQAVDTAVDGVFIRSLKVNCKVTSRFAHYVVTSQVVNTANEAREVAFDLEIPKTAFISDFAVTADGNAFIGDIKDKVTAWKQYRKAAISGENAGLVRASGRTMEQFTIHLTVNPQSKVTFQLTYEEVLKRNHMQYEIVIKVKPKQLVHHFEIDVDIFEPQGISKLDAQASFLPKELAAQTIKKSFSGKKGHVLFRPTVSQQQSCPTCSTSLLNGHFKVTYDVSRDKICDLLVANNHFAHFFAPQNLTNMNKNVVFVIDISGSMRGQKVKQTKEALLKILGDMQPGDYFDLVLFGTRVQSWKGSLVQASEANLQAAQDFVRGFSLDEATNLNGGLLRGIEILNQVQESLPELSNHASILIMLTDGDPTEGVTDRSQILKNVRNAIRGRFPLYNLGFGHNVDFNFLEVMSMENNGRAQRIYEDHDATQQLQGFYSQVAKPLLVDVDLQYPQDAVLALTQNHHKQYYEGSEIVVAGRIADNKQSSFKADVQAHGEGQEFSITCLVDEEEMKKLLRERGHMLENHVERLWAYLTIQELLAKRMKVDREERANLSSQALQMSLDYGFVTPLTSMSIRGMADQDGLKPTIDKPSEDSPPLEMLGPRRTFVLSALQPSPTHSSSNTQRLPDRVTGVDTD

Data set [1] deals with the molecule itself. In words: AUC.
Data set [2] concerns the molecule itself. In words: AUC. The source holds these as a separate data set.
Data set [3] has as its target B1. The data set is described as follows: SPR. (In general: Surface plasmon resonance follows binding to a sensor surface in real time, without labels.)

In general, stoichiometry N refers to a count of units in the complex or per binding partner. A word on the Kd: it is a measure of binding affinity in units of concentration. With B1, in the data set “AUC [1]”, the “stoichiometry N” value worked out at 2. Further, in the data set “AUC [2]”, the equilibrium dissociation constant (Kd) is 35.3 µM.

B2: vitronectin (natural protein, UniProt P04004 20-478, looked up)
chain: DQESCKGRCTEGFNVDKKCQCDELCSYYQSCCTDYTAECKPQVTRGDVFTMPEDEYTVYDDGEEKNNATVHEQVGGPSLTSDLQAQSKGNPEQTPVLKPEEEAPAPEVGASKPEGIDSRPETLHPGRPQPPAEEELCSGKPFDAFTDLKNGSLFAFRGQYCYELDEKAVRPGYPKLIRDVWGIEGPIDAAFTRINCQGKTYLFKGSQYWRFEDGVLDPDYPRNISDGFDGIPDNVDAALALPAHSYSGRERVYFFKGKQYWEYQFQHQPSQEECEGSSLSAVFEHFAMMQRDSWEDIFELLFWGRTSAGTRQPQFISRDWHGVPGQVDAAMAGRIYISGMAPRPSLAKKQRFRHRNRKGYRSQRGHSRGRNQNSRRPSRATWLSLFSSEESNLGANNYDDYRMDWLVPATCEPIQSVFFFSGDKYYRVNLRTRRVDTVDPPYPRSIAQYWLGCPAPGHL
For B2, the Kd in data set [3] is around 0.0002 µM.
